This note sets out measurements from patent publication US20200140562A1 (Innovent, published 2020).

Experiment [1] deals with T1, human OX40 on cells (CHO-hOX40, 293HEK-hOX40, Jurkat-hOX40, activated primary CD4+ T cells) (human, UniProt P43489 29-277).
T1 construct: whole, on cells; The cell type is told in each assay; also called CHO-OX40
T1 sequence (looked up): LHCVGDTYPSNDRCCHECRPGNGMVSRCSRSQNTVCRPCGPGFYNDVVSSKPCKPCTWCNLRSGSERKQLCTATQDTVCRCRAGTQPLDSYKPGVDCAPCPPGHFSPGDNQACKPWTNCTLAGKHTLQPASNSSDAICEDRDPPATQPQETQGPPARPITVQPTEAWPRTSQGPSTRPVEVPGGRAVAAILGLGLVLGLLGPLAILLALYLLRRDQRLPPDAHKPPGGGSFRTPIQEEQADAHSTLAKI
The experiment can be described thus: flow cytometry, MFI on CHO-hOX40 over wild-type CHO.

For experiment [2], the target named is T1, human OX40 on cells (CHO-hOX40, …). In words: flow cytometry, 293HEK-hOX40, 200 nM.
The target is the same in experiment [3]. In words: flow cytometry, activated CD4+ T cells, donor 1, 100 nM.
The target is the same in experiment [4]. The experiment can be described thus: flow cytometry, 293HEK-hOX40, 1.6 nM.
The target of experiment [5] is T2, cyno OX40_Fc (Acro Biosystems) (cyno).
T2 construct: Bought
In words: BLI, IgG1 on tip, cyno OX40-Fc 100 nM, avid.

Experiment [6] has as its target T3, human OX40_Fc (R&D Systems) (human, UniProt P43489 29-216).
T3 construct: Bought
In words: BLI, IgG1 on tip, hOX40-Fc 50 nM, avid.

In experiment [7] the target is T1, human OX40 on cells (CHO-hOX40, …). In words: flow cytometry, 293HEK-hOX40, 40 nM.
Experiment [8] shares this target. The experiment can be described thus: flow cytometry, activated CD4+ T cells, donor 2, 100 nM.
The target in experiment [9] is T4, mouse OX40Fc (Acro Biosystems) (mouse, UniProt P47741 20-211, limits assumed).
T4 construct: Bought; not shown: Fc
T4 sequence (looked up): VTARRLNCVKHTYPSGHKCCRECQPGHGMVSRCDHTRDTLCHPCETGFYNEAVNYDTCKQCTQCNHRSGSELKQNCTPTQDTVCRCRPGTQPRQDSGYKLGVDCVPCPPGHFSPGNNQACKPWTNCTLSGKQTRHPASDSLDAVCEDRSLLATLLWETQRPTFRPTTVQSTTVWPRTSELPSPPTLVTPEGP
The experiment can be described thus: BLI, IgG1 on tip, mouse OX40-Fc in solution.

For experiment [10], the target named is T1, human OX40 on cells (CHO-hOX40, …). In words: cell-based or functional assay.
For experiment [11] the target is unchanged. In words: flow cytometry, CHO-hOX40, 100 nM blocker, competitor OX40L-hFc-fluorescein.
For experiment [12] the target is unchanged. The experiment can be described thus: flow cytometry, 293HEK-hOX40, 8 nM.
Experiment [13] shares this target. The experiment can be described thus: flow cytometry, CHO-hOX40, 100 nM.
Experiment [14] concerns the target T4, mouse OX40Fc (Acro Biosystems). In words: BLI, IgG1 on tip, mouse OX40-Fc 100 nM, avid.

B1: ADI-20065, IgG1 format (antibody, V domains shown)
VH: QLQLQESGPGLVKPSETLSLTCTVSGGSISSSSYYWGWIRQPPGKGLEWIGSIYYSGSTYYNPSLKSRVTISVDTSKNQFSLKLSSVTAADTAVYYCARDPGYSASPNWFDPWGQGTLVTVSS
VL: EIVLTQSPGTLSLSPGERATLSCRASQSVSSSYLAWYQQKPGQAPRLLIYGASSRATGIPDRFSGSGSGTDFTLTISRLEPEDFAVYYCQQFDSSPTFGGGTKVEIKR
notes: Made in yeast
For the molecule B1, in experiment [1], the Fold difference came out at 2240 fold. Moreover, the MFI was determined as 3.03e+06 MFI in experiment [2]; 153000 MFI in [3]; 808000 MFI in [4]; 2.42e+06 MFI in experiment [7]; 209000 MFI in [8]; 2.46e+06 MFI in experiment [12]. The Kd was 5.77 nM in [5] and 0.352 nM in [6]. Besides, in experiment [9], the binding result is on record as “no binding (tested: 100 nM)”. In addition, in experiment [10], the “NFkB-Luc fold change in Jurkat stimulated by PHA+ anti-CD28” value (shortened to “NFkB-Luc fold change … by PHA+ anti-CD28”) amounted to 2.11 fold over IgG4 control. Further, in [10], the “NFkB-Luc fold change in Jurkat stimulated by anti-CD3+ anti-CD28” value was determined as 1.19 fold over IgG4 control. The “MFI of OX40L signal on CHO-OX40 cells” value in experiment [11] came to 33700 MFI. In addition, in experiment [13], the “CHO-OX40 binding intensity (MFI)” value was determined as 157000 MFI.

B2: ADI-20066, IgG1 format (antibody, V domains shown)
VH: QLQLQESGPGLVKPSETLSLTCTVSGGSISSSSYYWGWIRQPPGKGLEWIGSIYYSGSTYYNPSLKSRVTISVDTSKNQFSLKLSSVTAADTAVYYCARDPGYSASPNWFDPWGQGTLVTVSS
VL: EIVLTQSPGTLSLSPGERATLSCRASQSVSSSFLAWYQQKPGQAPRLLIYGASSRATGIPDRFSGSGSGTDFTLTISRLEPEDFAVYYCQQYDVFPITFGGGTKVEIKR
notes: Made in yeast
In the case of B2, the Fold difference in experiment [1] was 2750 fold. Further, the MFI in experiment [2] came to 2.55e+06 MFI; in [3] it was 134000 MFI; in experiment [4] it was 626000 MFI; in experiment [7], 2.39e+06 MFI; in experiment [8], 193000 MFI; in [12], 2.82e+06 MFI. Further, the Kd in experiment [5] was found to be 14.3 nM; in experiment [6] it was 0.91 nM. Further, in experiment [9], the binding result is recorded as “no binding (tested: 100 nM)”. Also, the “NFkB-Luc fold change … by PHA+ anti-CD28” value in [10] stood at 2.09 fold over IgG4 control. Further, the “NFkB-Luc fold change in Jurkat stimulated by anti-CD3+ anti-CD28” value in experiment [10] came to 1.96 fold over IgG4 control. Moreover, the “MFI of OX40L signal on CHO-OX40 cells” value in experiment [11] was 32800 MFI. Further, the “CHO-OX40 binding intensity (MFI)” value in [13] is 161000 MFI.

B3: ADI-20048, IgG1 format (antibody, V domains shown)
VH: QVQLQESGPGLVKPSETLSLTCTVSGGSISSYYWSWIRQPPGKGLEWIGYIYSSGSTNYNPSLKSRVTISVDTSKNQFSLKLSSVTAADTAVYYCARDAPGGSSYQDYYMDVWGKGTTVTVSS
VL: EIVLTQSPATLSLSPGERATLSCRASQSVSSYLAWFQQKPGQAPRLLIYDASNRATGIPARFSGSGSGTDFTLTISSLEPEDFAVYYCQQAFSMPPTFGGGTKVEIKR
notes: Made in yeast
For the molecule B3, the Fold difference in experiment [1] stood at 1470 fold. In addition, the MFI stood at 1.7e+06 MFI in [2]; 43100 MFI in experiment [3]; 977000 MFI in [4]; 1.85e+06 MFI in experiment [7]; 62600 MFI in [8]; 1.73e+06 MFI in [12]. Also, the Kd was determined as 9.86 nM in [5], 3.68 nM in [6] and 3.76 nM in [14]. Further, the “NFkB-Luc fold change … by PHA+ anti-CD28” value in experiment [10] was 3.63 fold over IgG4 control. In [10], the “NFkB-Luc fold change in Jurkat stimulated by anti-CD3+ anti-CD28” value amounted to 5.77 fold over IgG4 control. Besides, the “MFI of OX40L signal on CHO-OX40 cells” value in [11] worked out at 34300 MFI. Moreover, the “CHO-OX40 binding intensity (MFI)” value in experiment [13] amounted to 143000 MFI.

B4: ADI-20113, IgG1 format (antibody, V domains shown)
VH: QVQLVESGGGVVQPGRSLRLSCAASGFTFSSYGMHWVRQAPGKGLEWVAVISYDGSNKYYADSVKGRFTISRDNSKNTLYLQMNSLRAEDTAVYYCARGRPWYSETGTSAFDIWGQGTMVTVSS
VL: EIVMTQSPATLSVSPGERATLSCRASQSVSSNLAWYQQKPGQAPRLLIYSASTRATGIPARFSGSGSGTEFTLTISSLQSEDFAVYYCQQHNVYPPYTFGGGTKVEIKR
notes: Made in yeast
B4 gave a Fold difference in experiment [1] of 2460 fold. In addition, the MFI is 2.41e+06 MFI in experiment [2]; 84400 MFI in [3]; 734000 MFI in [4]; 2.18e+06 MFI in [7]; 115000 MFI in experiment [8]; 2e+06 MFI in [12]. The Kd in experiment [5] worked out at 5.52 nM; in experiment [6] it was 1.22 nM. Further, the binding result in [9] is “no binding (tested: 100 nM)”. In [10], the “NFkB-Luc fold change … by PHA+ anti-CD28” value was 3.79 fold over IgG4 control. For the same molecule, in experiment [10], the “NFkB-Luc fold change in Jurkat stimulated by anti-CD3+ anti-CD28” value was 3.98 fold over IgG4 control. In addition, the “MFI of OX40L signal on CHO-OX40 cells” value in experiment [11] came to 24000 MFI. Besides, the “CHO-OX40 binding intensity (MFI)” value in [13] is 152000 MFI.

B5: ADI-20096, IgG1 format (antibody, V domains shown)
VH: EVQLVESGGGLVKPGGSLRLSCAASGFTFSSYSMNWVRQAPGKGLEWVSSISSSSNYIYYADSVKGRFTISRDNAKNSLYLQMNSLRAEDTAVYYCARGAPLGYSWEYFDLWGRGTLVTVSS
VL: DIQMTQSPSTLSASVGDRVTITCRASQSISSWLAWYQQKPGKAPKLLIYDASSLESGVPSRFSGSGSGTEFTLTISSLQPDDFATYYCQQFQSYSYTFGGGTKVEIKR
notes: Made in yeast
B5 gave a Fold difference in [1] of 1970 fold. For the same molecule, the MFI in [2] turned out to be 1.84e+06 MFI; in experiment [3], 54600 MFI; in experiment [4], 417000 MFI; in experiment [7], 1.82e+06 MFI; in experiment [8] it was 75400 MFI; in experiment [12] it was 1.1e+06 MFI. In addition, the dissociation constant Kd was found to be 3.36 nM in experiment [6] and 5.41 nM in experiment [14]. Moreover, the “NFkB-Luc fold change … by PHA+ anti-CD28” value in experiment [10] was found to be 4.57 fold over IgG4 control. The “NFkB-Luc fold change in Jurkat stimulated by anti-CD3+ anti-CD28” value in [10] is 5.12 fold over IgG4 control. In addition, in experiment [11], the “MFI of OX40L signal on CHO-OX40 cells” value is 31900 MFI. Further, in experiment [13], the “CHO-OX40 binding intensity (MFI)” value is 133000 MFI.
